Assay results reported in patent US8071348B2, “Protein tyrosine phosphatase substrate-trapping double mutant and uses thereof” (Albert Einstein College of Medicine of Yeshiva University, priority 2002, dated 2011).
[ ]: non-standard residue; d: D form. F2Pmp = N[C@@H](Cc1ccc(C(F)(F)P(=O)(O)O)cc1)C(=O)O

Tests used:
EGF receptor [1] = assay: Substrate protection: EGF receptor tyrosine phosphorylation in COS1 cells expressing PTP1B forms (anti-pTyr Western blot); format: cell-based, Monkey; conditions: COS1 cell lysates, anti-pTyr immunoblot (FIG. 4)
Protocol: FIG. 4 sets forth Western blots (WB) that show the level of tyrosine phosphorylation in the epidermal growth factor receptor (EGFR) upon expression of the wild-type and mutant PTP1Bs (4 μg plasmid/60 mm dish) in COS1 cells. Samples (50 μg total protein) were taken from the lysates of COS1 cells transfected with 4 μg of pJ3H plasmids expressing HA-tagged wild-type PTP1B, D181A, C215S, D181A/Q262A, or D181A/C215S. These samples were loaded into each lane for SDS-PAGE electrophoresis, and transferred onto a nitrocellulose membrane. The proteins on the membrane were first immunoblotted with anti-pTyr HRP conjugate (upper panel). The membrane was then stripped and re-probed with anti-hemagglutinin (anti-HA) HRP conjugate (lower panel).
(§1) The hemagglutinin-tagged (HA-tagged) full-length human wild-type PTP1B in pJ3H expression vector was a gift from Dr. Chemoff (30). The HA-tagged PTP1B mutants, C215S, D181A, D181A/C215S, and D181A/Q262A, were generated by PCR reactions, according to the standard procedure of the Quick-Change™ site-directed mutagenesis kit (Stratagene), using pJ3H-HA-PTP1B as a template. All mutations were verified by DNA sequencing.
Monkey kidney COS1 cells (ATCC: CRL-1650) were maintained in Dulbecco's modified Eagle's minimum essential medium (DMEM), supplemented with 10% fetal bovine serum (Life Technologies, Inc.), penicillin (50 units/ml), streptomycin (50 μg/ml), and L-glutamine (2 mM) under a humidified atmosphere containing 5% CO2. In transient transfection experiments, COS1 cells were inoculated at a density of 2×10^5 cells/60-mm dish, and grown overnight in DMEM containing 10% fetal bovine serum. Transfection was performed using LipoTAXI^R according to the manufacturer's recommendations (Stratagene, Cedar Creek, Tex.). Each transfection assay included 4 μg of purified DNA mixed with LipoTAXI^R in a 1:5 DNA:lipid ratio per 60-mm dish of cells. Following transfection, the cells were exchanged to normal culture medium, and maintained for 44 to 48 h at 37° C. and 5% CO2. The efficiency of transfection, as assessed by 5-bromo-4-chloro-3-indolyl-β-D galactoside (X-Gal) staining of pCMV-β-gal-transfected (β-Gal staining kit, Invitrogen) COS cells, was 25%.
The transfected cells (treated with or without EGF) were lysed with “lysis buffer” containing 50 mM Tris-HC1 (pH 7.5), 5 mM EDTA, 150 mM NaCl, 10 mM sodium phosphate, 10 mM sodium fluoride, 5 mM iodoacetic acid, 1 mM benzamidine, 1% Triton X-100, 10 μg/ml leupeptin, and 5 μg/ml Aprotinin. Lysate protein concentration was estimated using Bio-Rad protein assay reagent (Bio-Rad, Hercules, Calif.).
For immunoprecipitation, 1 mg of cell lysate was immunoprecipitated overnight with 30 μl of agarose-conjugated anti-hemagglutinin antibody at 4° C. Immunocomplexes were washed four times with the cell lysis buffer, and boiled for 5 min in SDS-PAGE sample buffer. Proteins in the cell lysate were separated by 8% SDS-PAGE under reducing conditions, according to the method of Laemmli (31), followed by blotting onto nitrocellulose membranes (Protran, Schleicher & Schuell). The nitrocellulose membranes were blocked with 5% non-fat dry milk in Tris-buffered saline/Tween (TBST) buffer (20 mM Tris-HC1, 150 mM NaCl, 0.1% Tween-20; pH 7.6) for 1 h at 25° C.
Thereafter, blots were incubated overnight with primary antibodies diluted in TBST containing 5% non-fat dry milk at 4° C. […]

EGF receptor [2] = assay: Substrate pull-down: anti-HA immunoprecipitation of PTP1B forms from EGF-treated COS1 cells, anti-pTyr/anti-EGFR blot; format: cell-based, Monkey
Protocol: FIG. 5 illustrates immunoprecipitation (IP) and Western blots (WB) of the phospho-EGF receptor, and other less abundant PTP1B substrates, by the PTP1B substrate-trapping mutants. Wild-type PTP1B, D181A, D181A/Q262A, D181A/C215S, C215S, or blank vector (pJ3H) was used to transfect COS1 cells (4 μg plasmid/60 mm dish). The cells were maintained at 37° C. for 44-48 h. Twenty minutes before harvesting the cells, 20 ng/ml EGF was added to each dish. The PTP1B proteins were precipitated from the cell lysates using anti-hemagglutinin (anti-HA) antibody-conjugated agarose beads from the cell lysates (500 μg total protein) at 4° C. overnight. The beads were washed 3 times with the lysis buffer, mixed with 2×SDS sample buffer, and then boiled for 5 min. The immunocomplexes were resolved by SDS-PAGE, and transferred onto a nitrocellulose membrane. The membrane was probed with anti-pTyr HRP-conjugated antibody (lower panel). The membrane was then stripped and reblotted with anti-EGFR rabbit polyclonal antibody (middle panel). Thereafter, the membrane was further stripped, and re-probed with anti-HA HRP conjugate (upper panel).
as §1
Monkey kidney COS1 cells (ATCC: CRL-1650) were maintained in Dulbecco's modified Eagle's minimum essential medium (DMEM), supplemented with 10% fetal bovine serum (Life Technologies, Inc.), penicillin (50 units/ml), streptomycin (50 μg/ml), and L-glutamine (2 mM) under a humidified atmosphere containing 5% CO2. […] The efficiency of transfection, as assessed by 5-bromo-4-chloro-3-indolyl-β-D galactoside (X-Gal) staining of pCMV-β-gal-transfected (β-Gal staining kit, Invitrogen) COS cells, was 25%. […]

[3] = biological target: T1, Ac-Asp-Ala-Asp-Glu-F2Pmp-Leu-NH2; assay: ITC, 25 C, pH 7.0
T1 construct: Synthetic hexapeptide printed in three-letter code; also called F2Pmp-containing peptide; non-hydrolyzable substrate analog
T1 peptide: Ac-DADE[F2Pmp]L-NH2
Protocol: All isothermal titration calorimetry experiments were performed using an MCS Isothermal Titration Calorimetry System from Microcal Inc. (Northampton, Mass.). Experiments at pH 7.0 were conducted at 25° C., in 50 mM 3,3-dimethylglutarate buffer containing 1 mM DTT. The ionic strength of the buffer was adjusted to 0.15 M by addition of NaCl. Protein concentration in the calorimeter cell was 27-85 µM, while the ligand concentration in the syringe was 0.37-1 mM.
A typical titration curve and binding isotherm for the binding of D181A/Q262A to Ac-Asp-Ala-Asp-Glu-F_2Pmp-Leu-NH_2 is shown in FIG. 3. From curve-fitting of the binding isotherms, the stoichiometry for the binding of the peptide to D181A/Q262A was determined to be 1:1.

B1: PTP1B/D181A/Q262A, catalytic domain (residues 1 to 321) (enzyme, human, UniProt P18031 1-321, looked up)
chain: MEMEKEFEQIDKSGSWAAIYQDIRHEASDFPCRVAKLPKNKNRNRYRDVSPFDHSRIKLHQEDNDYINASLIKMEEAQRSYILTQGPLPNTCGHFWEMVWEQKSRGVVMLNRVMEKGSLKCAQYWPQKEEKEMIFEDTNLKLTLISEDIKSYYTVRQLELENLTTQETREILHFHYTTWPAFGVPESPASFLNFLFKVRESGSLSPEHGPVVVHCSAGIGRSGTFCLADTCLLLMDKRKDPSSVDIKKVLLEMRKFRMGLIATADQLRFSYLAVIEGAKFIMGDSSVQDQWKELSHEDLEPPPEHIPPPPRPPKRILEPHN
notes: range 1-321; Used in vitro (ITC, kinetics); also called PTP1B substrate-trapping double mutant
level of pTyr in the EGF receptor / enhancement of EGF receptor phosphorylation (EGF receptor [1]): most pronounced
protection of phosphorylated EGF receptors, fold better than D181A (EGF receptor [1]): more than 3 fold
affinity for EGFR in in vivo substrate-trapping experiments, versus PTP1B/D181A or PTP1B/C215S (EGF receptor [2]): much higher affinity
quantity of tyrosine-phosphorylated EGF receptor co-precipitated, fold greater than with D181A (EGF receptor [2]; EGF 20 ng/ml for 20 min, anti-HA immunoprecipitation (FIG. 5)): more than 3 fold
trapping of other tyrosine phosphorylated proteins (P160, P120, P70, P60) (EGF receptor [2]; anti-HA immunoprecipitation, not visible in D181A or C215S samples (FIG. 5)): trapped several novel, less-abundant tyrosine phosphorylated proteins
fold higher affinity than the D181A mutant [3]: ~6 fold
fold lower Kd than wild-type PTP1B and the C215S mutant [3]: ~30 fold
